For 26 molecules, Kd, koff and kon results are on record in patent US20260184782A1 (TWIST BIOSCIENCE, published 2026).

Bounds are passed on as bounds.

T1: recombinant human TIGIT (human, UniProt Q495A1 22-141, limits assumed)
T1 construct: recombinant human TIGIT used in Carterra SPR; also called hTIGIT
T1 sequence (looked up): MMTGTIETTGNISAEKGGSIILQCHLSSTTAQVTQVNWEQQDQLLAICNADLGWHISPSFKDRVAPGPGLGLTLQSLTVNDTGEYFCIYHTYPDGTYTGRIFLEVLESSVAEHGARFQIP

B1: TIGIT-SC14 (Fc fusion)
VHH: EVQLVESGGGLVQPGGSLRLSCAASGSISSIHAMGWFRQAPGKEREFVATISRSGVGTFYADSVKGRFTISADNSKNTAYLQMNSLKPEDTAVYYCASSYSSSSGLGDIWGQGTLVTVSS
notes: VHH-Fc fusion in assay
B2: TIGIT-SC3 (Fc fusion)
VHH: EVQLVESGGGLVQPGGSLRLSCAASGTFQRINAMGWFRQAPGKEREFVSTINWSGSNTYYADSVKGRFTISADNSKNTAYLQMNSLKPEDTAVYYCASSYSSSSGLGDIWGQGTLVTVSS
notes: VHH-Fc fusion in assay
B3: TIGIT-SC77 (Fc fusion)
VHH: EVQLVESGGGLVQPGGSLRLSCAASGGAFSTVAMGWFRQAPGKEREAVASIWRSGDSTYYADSVKGRFTISADNSKNTAYLQMNSLKPEDTAVYYCASSYSSSSGLGDIWGQGTLVTVSS
notes: VHH-Fc fusion in assay
B4: TIGIT-SC108 (Fc fusion)
VHH: EVQLVESGGGLVQPGGSLRLSCAASGNTFSGGFMGWFRQAPGKEREWVASVLRGGYTWYADSVKGRFTISADNSKNTAYLQMNSLKPEDTAVYYCANGGRVWWAFDYWGQGTLVTVSS
notes: VHH-Fc fusion in assay
B5: TIGIT-SC61 (Fc fusion)
VHH: EVQLVESGGGLVQPGGSLRLSCAASGNTFSGGFMGWFRQAPGKEREWVASVLRGGYTWYADSVKGRFTISADNSKNTAYLQMNSLKPEDTAVYYCTRGDTAMATFDYWGQGTLVTVSS
notes: VHH-Fc fusion in assay
B6: TIGIT-SC197 (Fc fusion)
VHH: EVQLVESGGGLVQPGGSLRLSCAASGFTFDRSWMGWFRQAPGKEREWVASVLRGGYTWYADSVKGRFTISADNSKNTAYLQMNSLKPEDTAVYYCAREGRTAGWFDPWGQGTLVTVSS
notes: VHH-Fc fusion in assay
B7: TIGIT-SC10 (Fc fusion)
VHH: EVQLVESGGGLVQPGGSLRLSCAASGNTFSGGFMGWFRQAPGKEREWVASVLRGGYTWYADSVKGRFTISADNSKNTAYLQMNSLKPEDTAVYYCASDPWGTRYFDHWGQGTLVTVSS
notes: VHH-Fc fusion in assay
B8: TIGIT-SC21 (Fc fusion)
VHH: EVQLVESGGGLVQPGGSLRLSCAASGNTFSGGFMGWFRQAPGKEREWVASVLRGGYTWYADSVKGRFTISADNSKNTAYLQMNSLKPEDTAVYYCARGGAGSDWFGPWGQGTLVTVSS
notes: VHH-Fc fusion in assay
B9: TIGIT-SC175 (Fc fusion)
VHH: EVQLVESGGGLVQPGGSLRLSCAASGNTFSGGFMGWFRQAPGKEREWVASVLRGGYTWYADSVKGRFTISADNSKNTAYLQMNSLKPEDTAVYYCTTDALRFLEWPWWGQGTLVTVSS
notes: VHH-Fc fusion in assay
B10: TIGIT-SC58 (Fc fusion)
VHH: EVQLVESGGGLVQPGGSLRLSCAASGFTLGYYVMGWFRQAPGKEREFVATINWSGTLTSYADSVKGRFTISADNSKNTAYLQMNSLKPEDTAVYYCARWVGPKYYFDYWGQGTLVTVSS
notes: VHH-Fc fusion in assay
B11: TIGIT-SC34 (Fc fusion)
VHH: EVQLVESGGGLVQPGGSLRLSCAASGTTFSPYTMGWFRQAPGKEREFVASINSGSRTNYADSVKGRFTISADNSKNTAYLQMNSLKPEDTAVYYCVRSEIGWGQGTLVTVSS
notes: VHH-Fc fusion in assay
B12: TIGIT-SC47 (Fc fusion)
VHH: EVQLVESGGGLVQPGGSLRLSCAASGRALNMYVMGWFRQAPGKERELVAAIDWSGGSALYADSVKGRFTISADNSKNTAYLQMNSLKPEDTAVYYCASGDGYSMDYFDPWGQGTLVTVSS
notes: VHH-Fc fusion in assay
B13: TIGIT-SC63 (Fc fusion)
VHH: EVQLVESGGGLVQPGGSLRLSCAASGRAIGSYGMGWFRQAPGKEREFVATISVSGVYTYYADSVKGRFTISADNSKNTAYLQMNSLKPEDTAVYYCARATPGGVVPWGQGTLVTVSS
notes: VHH-Fc fusion in assay
B14: TIGIT-SC170 (Fc fusion)
VHH: EVQLVESGGGLVQPGGSLRLSCAASGHTFSPSWMGWFRQAPGKEREWVASVLRGGYTWYADSVKGRFTISADNSKNTAYLQMNSLKPEDTAVYYCTTELRWELQQPDYWGQGTLVTVSS
notes: VHH-Fc fusion in assay
B15: TIGIT-SC97 (Fc fusion)
VHH: EVQLVESGGGLVQPGGSLRLSCAASGTAASFNPMGWFRQAPGKEREFVAAISWSGGSTNYADSVKGRFTISADNSKNTAYLQMNSLKPEDTAVYYCVTYSAYDFRNAWGQGTLVTVSS
notes: VHH-Fc fusion in assay
B16: TIGIT-SC95 (Fc fusion)
VHH: EVQLVESGGGLVQPGGSLRLSCAASGPTFSTNVMGWFRQAPGKEREFVSSIHWGGSSTVYADSVKGRFTISADNSKNTAYLQMNSLKPEDTAVYYCVTYSAYDFRNAWGQGTLVTVSS
notes: VHH-Fc fusion in assay
B17: TIGIT-SC39 (Fc fusion)
VHH: EVQLVESGGGLVQPGGSLRLSCAASGRTVSSHAMGWFRQAPGKEREFVAAITSSGSTYYADSVKGRFTISADNSKNTAYLQMNSLKPEDTAVYYCASSYSSSSGLGDIWGQGTLVTVSS
notes: VHH-Fc fusion in assay
B18: TIGIT-SC107 (Fc fusion)
VHH: EVQLVESGGGLVQPGGSLRLSCAASGFAFSSDWMGWFRQAPGKEREGVAWIARYDGSTLYADSVKGRFTISADNSKNTAYLQMNSLKPEDTAVYYCAKDLDSSGRFFQHWGQGTLVTVSS
notes: VHH-Fc fusion in assay
B19: TIGIT-SC160 (Fc fusion)
VHH: EVQLVESGGGLVQPGGSLRLSCAASGNTFSGGFMGWFRQAPGKEREWVASVLRGGYTWYADSVKGRFTISADNSKNTAYLQMNSLKPEDTAVYYCAREGRSSSPWFDPWGQGTLVTVSS
notes: VHH-Fc fusion in assay
B20: TIGIT-SC110 (Fc fusion)
VHH: EVQLVESGGGLVQPGGSLRLSCAASGNTFSGGFMGWFRQAPGKEREWVASVLRGGYTWYADSVKGRFTISADNSKNTAYLQMNSLKPEDTAVYYCARDHTAMVAPFDYWGQGTLVTVSS
notes: VHH-Fc fusion in assay
B21: TIGIT-SC6 (Fc fusion)
VHH: EVQLVESGGGLVQPGGSLRLSCAASGNTFSGGFMGWFRQAPGKEREWVASVLRGGYTWYADSVKGRFTISADNSKNTAYLQMNSLKPEDTAVYYCAISPVAWHAKFDSWGQGTLVTVSS
notes: VHH-Fc fusion in assay
B22: TIGIT-SC1 (Fc fusion)
VHH: EVQLVESGGGLVQPGGSLRLSCAASGFTLNDYAMGWFRQAPGKERELVAWIARYDGSTLYADSVKGRFTISADNSKNTAYLQMNSLKPEDTAVYYCARVDWALNAAPFDYWGQGTLVTVSS
notes: VHH-Fc fusion in assay
B23: TIGIT-SC78 (Fc fusion)
VHH: EVQLVESGGGLVQPGGSLRLSCAASGLTLNDYAMGWFRQAPGKERELVAWIARYDGSTLYADSVKGRFTISADNSKNTAYLQMNSLKPEDTAVYYCARVDWALNAAPFDYWGQGTLVTVSS
notes: VHH-Fc fusion in assay
B24: TIGIT-SC19 (Fc fusion)
VHH: EVQLVESGGGLVQPGGSLRLSCAASGRTYDAMGWFRQAPGKEREWVASVLRGGYTWYADSVKGRFTISADNSKNTAYLQMNSLKPEDTAVYYCARDVDYRFDSWGQGTLVTVSS
notes: VHH-Fc fusion in assay
B25: TIGIT-SC38 (Fc fusion)
VHH: EVQLVESGGGLVQPGGSLRLSCAASGFTFSEYPMGWFRQAPGKEREFVAVVNWNGDSTYYADSVKGRFTISADNSKNTAYLQMNSLKPEDTAVYYCARGSDWYRYWGQGTLVTVSS
notes: VHH-Fc fusion in assay
B26: TIGIT-SC48 (Fc fusion)
VHH: EVQLVESGGGLVQPGGSLRLSCAASGRTSDIYGMGWFRQAPGKEREAVASIWRSGGNTYYADSVKGRFTISADNSKNTAYLQMNSLKPEDTAVYYCASSTLDVWGQGTLVTVSS
notes: VHH-Fc fusion in assay

In this assay the target is T1, recombinant human TIGIT. The assay can be described thus: SPR Carterra, average. The protocol: Binding affinities of VHH-Fc proteins to recombinant human TIGIT were measured by SPR using a Carterra instrument (Table 10A). […] Average values reported from measurements from 1-2 samples.
With B1, the Kd is no more than 0.00513 nM, the koff is no more than 1e-05 s⁻¹ and the kon turned out to be 1.95e+06 M⁻¹ s⁻¹.
On the same counts, the results for B2 are no more than 0.00502 nM, no more than 1e-05 s⁻¹ and 4.71e+06 M⁻¹ s⁻¹.
Consider B3, for which the Kd is 2.07 nM, the koff is 0.000837 s⁻¹ and the kon was found to be 1.17e+06 M⁻¹ s⁻¹.
For B4, the Kd is 8.9 nM, the koff is 0.00181 s⁻¹ and the kon turned out to be 203000 M⁻¹ s⁻¹.
On the same counts, the results for B5 are 59.2 nM, 0.0037 s⁻¹ and 63000 M⁻¹ s⁻¹.
On to B6, for which the Kd was found to be 9.35 nM, the koff was determined as 0.00156 s⁻¹ and the kon was found to be 168000 M⁻¹ s⁻¹.
The like results for B7 were, in that order, 0.328 nM, 0.0002 s⁻¹ and 566000 M⁻¹ s⁻¹.
For the molecule B8, the Kd was determined as 7.57 nM, the koff came to 0.000578 s⁻¹ and the kon is 86600 M⁻¹ s⁻¹.
The like results for B9 were, in that order, 14.4 nM, 0.00124 s⁻¹ and 101000 M⁻¹ s⁻¹.
The like results for B10 were, in that order, no more than 0.0118 nM, no more than 1e-05 s⁻¹ and 860000 M⁻¹ s⁻¹.
The like results for B11 were, in that order, no more than 0.0105 nM, no more than 1e-05 s⁻¹ and 1.31e+06 M⁻¹ s⁻¹.
In the case of B12, the Kd was no more than 0.204 nM, the koff was no more than 1e-05 s⁻¹ and the kon worked out at 48900 M⁻¹ s⁻¹.
On the same counts, the results for B13 are no more than 0.156 nM, no more than 1e-05 s⁻¹ and 64300 M⁻¹ s⁻¹.
As to B14, the Kd was no more than 0.222 nM, the koff is no more than 1e-05 s⁻¹ and the kon stood at 45000 M⁻¹ s⁻¹.
The like results for B15 were, in that order, 0.447 nM, 0.000231 s⁻¹ and 942000 M⁻¹ s⁻¹.
On the same counts, the results for B16 are 2.55 nM, 0.00352 s⁻¹ and 1.38e+06 M⁻¹ s⁻¹.
On the same counts, the results for B17 are no more than 0.0423 nM, no more than 1e-05 s⁻¹ and 342000 M⁻¹ s⁻¹.
On to B18, for which the Kd stood at 0.693 nM, the koff was 0.000148 s⁻¹ and the kon worked out at 213000 M⁻¹ s⁻¹.
For the molecule B19, the Kd turned out to be 31.6 nM, the koff stood at 0.00265 s⁻¹ and the kon stood at 105000 M⁻¹ s⁻¹.
On the same counts, the results for B20 are 1.44 nM, 0.000765 s⁻¹ and 531000 M⁻¹ s⁻¹.
On the same counts, the results for B21 are 19.4 nM, 0.00129 s⁻¹ and 66700 M⁻¹ s⁻¹.
On the same counts, the results for B22 are 0.467 nM, 0.000165 s⁻¹ and 246000 M⁻¹ s⁻¹.
For B23, the Kd was determined as 2.02 nM, the koff stood at 0.000493 s⁻¹ and the kon stood at 244000 M⁻¹ s⁻¹.
Take B24: the Kd was found to be 1.07 nM, the koff turned out to be 0.0012 s⁻¹ and the kon worked out at 1.12e+06 M⁻¹ s⁻¹.
Take B25: the Kd was 0.505 nM, the koff was 0.000237 s⁻¹ and the kon is 469000 M⁻¹ s⁻¹.
The like results for B26 were, in that order, 0.713 nM, 0.00551 s⁻¹ and 7.72e+06 M⁻¹ s⁻¹.

For orientation: Kd means the free concentration of one partner at which half of the binding sites on the other are occupied at equilibrium, for simple one-to-one binding. The term koff denotes the rate constant with which the complex falls apart. A word on the kon: it is the second-order rate constant of association.
